Reference: article PMC4335687 (Growth factors (Chur, Switzerland), 2014)

Target: EphA2 ligand-binding domain, untagged (UniProt P29317)
Assay: SEC

EphA2 ligand-binding domain, untagged, sequence (P29317 24-206): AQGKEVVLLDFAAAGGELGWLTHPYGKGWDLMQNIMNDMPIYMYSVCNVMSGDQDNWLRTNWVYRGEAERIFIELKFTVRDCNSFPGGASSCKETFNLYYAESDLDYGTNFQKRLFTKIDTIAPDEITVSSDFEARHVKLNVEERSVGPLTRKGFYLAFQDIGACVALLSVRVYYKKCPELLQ

stoichiometry N: 1
B1: D2 scFv-6xHis (monomeric anti-EphA2 single-chain antibody) (scFv, V domains shown)
VH: EVQLLESGGGLVQPGGSLRLSCAASGFTFSRYWMHWVRQAPGKGLEWVSSISPYDGETNYADSVKGRFTISRDNSKNTLYLQMNSLRAEDTAVYYCARISEWYNWAVDVFDYWGQGTLVTVSS
VL: EIVLTQSPGTLSLSPGERATLSCRASQSVSSSNLAWYQQKPGQAPRLLIYGASSRATGVPDRFSGSGSGTDFTLTISRLEPEDFAVYYCQQSSSYPWTFGQGTKVEIK
